Experiments:
[1] = target: human GUCY2C (guanylyl cyclase 2C), recombinant protein (human) (UniProt P25092)
[2] = target: human CD3 epsilon (CD3ε) (Homo sapiens) (UniProt P07766)
Chain of UniProt P07766 (P07766 23-207): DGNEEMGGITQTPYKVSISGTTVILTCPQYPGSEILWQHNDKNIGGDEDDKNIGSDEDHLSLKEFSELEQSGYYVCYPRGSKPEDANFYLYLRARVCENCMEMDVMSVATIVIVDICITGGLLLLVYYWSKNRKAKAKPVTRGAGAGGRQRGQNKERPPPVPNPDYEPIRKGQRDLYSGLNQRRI

Chain of UniProt P25092 (P25092 24-1073): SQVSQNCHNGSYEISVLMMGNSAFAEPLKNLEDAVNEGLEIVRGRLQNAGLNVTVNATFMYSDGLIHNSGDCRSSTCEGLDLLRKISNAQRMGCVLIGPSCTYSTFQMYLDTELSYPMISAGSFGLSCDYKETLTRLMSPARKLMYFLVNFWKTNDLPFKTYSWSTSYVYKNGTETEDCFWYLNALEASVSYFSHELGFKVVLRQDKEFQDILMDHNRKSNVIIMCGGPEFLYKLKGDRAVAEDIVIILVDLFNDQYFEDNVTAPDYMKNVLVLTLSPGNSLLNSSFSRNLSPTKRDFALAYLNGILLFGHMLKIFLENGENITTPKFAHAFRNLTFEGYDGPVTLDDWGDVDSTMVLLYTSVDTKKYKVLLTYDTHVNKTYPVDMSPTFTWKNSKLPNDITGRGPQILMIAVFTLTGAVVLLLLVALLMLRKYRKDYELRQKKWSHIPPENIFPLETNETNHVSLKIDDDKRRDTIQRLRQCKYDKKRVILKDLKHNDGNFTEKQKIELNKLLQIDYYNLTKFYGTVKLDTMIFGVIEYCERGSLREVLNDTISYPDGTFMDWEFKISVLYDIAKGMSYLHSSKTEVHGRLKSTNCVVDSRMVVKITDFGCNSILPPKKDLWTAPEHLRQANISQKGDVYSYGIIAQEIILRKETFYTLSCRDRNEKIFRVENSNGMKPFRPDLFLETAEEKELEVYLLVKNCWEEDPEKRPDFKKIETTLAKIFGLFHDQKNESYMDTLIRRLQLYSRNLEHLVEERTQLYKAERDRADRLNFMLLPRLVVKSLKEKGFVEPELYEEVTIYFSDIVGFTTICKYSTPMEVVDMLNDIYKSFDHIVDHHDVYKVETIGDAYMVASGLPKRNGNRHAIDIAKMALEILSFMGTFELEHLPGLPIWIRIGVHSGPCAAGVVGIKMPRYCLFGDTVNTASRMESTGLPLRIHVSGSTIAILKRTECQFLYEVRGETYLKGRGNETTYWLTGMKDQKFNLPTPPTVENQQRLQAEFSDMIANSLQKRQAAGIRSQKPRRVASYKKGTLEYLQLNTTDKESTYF

Substance: PF-07062119, anti-GUCY2C x anti-CD3ε T cell bispecific antibody (diabody-Fc)
- fold lower affinity than GUCY2C-0247 [1]: 2.5 fold
- fold lower affinity than GUCY2C-0247 [2]: 7.2 fold

From article PMC7833764
